In general, stoichiometry N refers to a count of units in the complex or per binding partner. By Kd is commonly meant the constant that tells how readily two partners part at equilibrium. Low readings indicate higher affinity, high ones lower affinity. The koff is a measure of how fast the partners let go of each other. Low values mean slow dissociation, high ones fast dissociation. A word on the kon: it is a measure of how fast the partners come together. A higher kon goes with fast association.

Series [1] deals with the molecule itself. Description: native gel or EMSA; native PAGE, 7.5% gel, Tris-glycine pH 8.8, 14 ug S100A12 with 5 uM Zn.
Series [2] deals with the molecule itself. The series can be described thus: native gel or EMSA; native PAGE, S100A12 with zinc and calcium plus TPEN (zinc chelator) or EDTA (divalent ion chelator). (In general: A gel shift assay detects complexes by their altered migration in electrophoresis.)
Series [3] deals with the molecule itself. Description: SEC; Superdex 200, 50 mM Tris-HCl pH 7.5, 200 mM NaCl, 20 C, 1 mg/ml injected; no ions added.
The target in series [4] is T1, Human RAGE-Fc fusion protein (human, UniProt Q15109 23-342).
T1 construct: RAGE (Receptor for Advanced Glycation End products), human; also called recombinant human RAGE/Fc; source: bought: R&D Systems
The series can be described thus: SPR; S100A12 immobilised (2,933 RU) by amine coupling on CM5; RAGE/Fc (125 nM) injected 3 min at 30 ul/min; HBS-P buffer with 1 mM Ca2+ and 20 uM Zn2+; 1:1 Langmuir model. To be noted: both partners purified. For orientation: SPR reads the build-up and loss of mass on a sensor chip optically.

Series [5] deals with the molecule itself. Description: native gel or EMSA; native PAGE, S100A12 in the presence of both Ca and Zn (also with the copper I chelator BCS).
Series [6] deals with the molecule itself. The series can be described thus: native gel or EMSA; native PAGE, 7.5% gel, Tris-glycine pH 8.8, 14 ug S100A12 in 2 mM Ca.

T1 sequence (Q15109 23-342): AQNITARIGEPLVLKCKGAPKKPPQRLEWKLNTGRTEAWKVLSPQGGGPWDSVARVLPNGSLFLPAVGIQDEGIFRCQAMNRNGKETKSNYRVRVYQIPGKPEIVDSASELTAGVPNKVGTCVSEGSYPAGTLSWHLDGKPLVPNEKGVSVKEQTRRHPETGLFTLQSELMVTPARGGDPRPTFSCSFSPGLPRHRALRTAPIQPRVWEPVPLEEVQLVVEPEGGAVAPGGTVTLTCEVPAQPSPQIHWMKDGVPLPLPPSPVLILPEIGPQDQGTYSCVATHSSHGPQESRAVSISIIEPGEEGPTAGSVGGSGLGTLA

B1: Recombinant full-length human S100A12 (natural protein, UniProt P80511 1-92, looked up)
chain: MTKLEEHLEGIVNIFHQYSVRKGHFDTLSKGELKQLLTKELANTIKNIKDKAVIDEIFQGLDANQDEQVDFQEFISLVAIALKAAHYHTHKE
notes: S100A12, human, full length; expressed from a modified pQE60 vector with a stop codon inserted so that the protein has no histidine tag; Oligomeric state (dimer, tetramer, hexamer) depends on Ca2+ and Zn2+ in the sample; [U-15N] labelled for the NMR experiments; also called apo-S100A12; Ca2+-S100A12; source: E. coli, purified (Phenyl-Sepharose, ResQ ion exchange)
B1: the “stoichiometry N” value in series [1] was around 4; in series [2], 2; in series [3], 4; in series [5], 6; in series [6], around 6. Further, in series [4], the Kd came to 4.6 nM. Further, the koff in series [4] was determined as 0.00032 s⁻¹. The molecule also showed a kon in series [4] of 68000 M⁻¹ s⁻¹.

(Values after PMC2686732, “Both Ca^2+ and Zn^2+ are essential for S100A12 protein oligomerization and function” (BMC Biochemistry, 2009).)
